Where two headings read alike, the source gives them in different places.

Test [1] deals with TβRII ECD (Homo sapiens) (UniProt P37173). The settings on record: cited from earlier work.
Test [2] concerns the target TGF-β2DM:TβRII binary complex (human) (UniProt P37173). The experiment in a line: SEC-MALS.
Test [3] addresses human TGF-β2 (human). The experiment in a line: SPR. For orientation: In SPR one partner is held on a chip, and binding of the other changes the refractive index at the surface.
The target in test [4] is human TGF-β2 (human). The experiment in a line: SPR. This is another data set of the same source.

Sequence of TβRII ECD (Homo sapiens) (P37173 23-166): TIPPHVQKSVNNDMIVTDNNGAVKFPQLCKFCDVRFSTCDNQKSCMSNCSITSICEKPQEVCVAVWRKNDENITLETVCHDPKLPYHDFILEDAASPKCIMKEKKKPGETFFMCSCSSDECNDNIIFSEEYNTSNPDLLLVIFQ

For TGF-β2 (from UniProt P61812), in test [1], the Kd (as a rule, a measure of binding affinity in units of concentration) was 20 µM.

Regarding “full-length zebrafish betaglycan ectodomain (domain or fragment)”, the stoichiometry N (BG (O-ZP) per TGF-β2DM dimer) in test [2] was 1. For the same substance, in test [3], the Kd stood at 0.00495 µM; the koff (in general, a measure of how fast the partners let go of each other) was 0.00173 s⁻¹; the kon (as a rule, the rate constant with which the complex forms) was determined as 350000 M⁻¹ s⁻¹.

In test [3], “zebrafish betaglycan ZP-C domain (domain or fragment)” displayed a KD1 (heterogeneous-ligand fit, ligand class 1) of 1100 nM; a KD2 (heterogeneous-ligand fit, ligand class 2) of 480 nM; a ka1 (heterogeneous-ligand fit, ligand class 1) of 480000 M⁻¹ s⁻¹; a kd1 (heterogeneous-ligand fit, ligand class 1) of 0.51 s⁻¹. In addition, in test [3], the kd2 (heterogeneous-ligand fit, ligand class 2) was found to be 9300 s⁻¹.

Regarding “zebrafish betaglycan orphan domain (domain or fragment)”, the stoichiometry N (BGO per TGF-β2DM dimer) in test [2] worked out at 1. Further, in test [3], the Kd came out at 0.027 µM, the koff was determined as 0.0288 s⁻¹ and the kon was 1.07e+06 M⁻¹ s⁻¹. In test [4], this substance registered a Kd of 0.015 µM, a koff of 0.00772 s⁻¹ and a kon of 528000 M⁻¹ s⁻¹.

(Values after PMC6726503.)
